Assay results reported in PMC3526269, “Demethylation initiated by ROS1 glycosylase involves random sliding along DNA”.
Residue numbers refer to the chain shown, from its start.

Key:
FL-ROS1 [1] = molecular target: T1, FL-ROS1 (Arabidopsis, UniProt Q9SJQ6 1-1393); test: EMSA; dissociates when chased with unlabelled S; EMSA: 10 nM (so in the source) Tris-HCl pH 8.0, 1 mM DTT, 10 ug/ml BSA, 1 mM EDTA, 25 C, 60 min; 100 nM probe; 0.2% agarose, 1x TAE; settings: protein: recombinant; tags: N-terminal His; label: 5'-fluorescein upper strand
T1 sequence: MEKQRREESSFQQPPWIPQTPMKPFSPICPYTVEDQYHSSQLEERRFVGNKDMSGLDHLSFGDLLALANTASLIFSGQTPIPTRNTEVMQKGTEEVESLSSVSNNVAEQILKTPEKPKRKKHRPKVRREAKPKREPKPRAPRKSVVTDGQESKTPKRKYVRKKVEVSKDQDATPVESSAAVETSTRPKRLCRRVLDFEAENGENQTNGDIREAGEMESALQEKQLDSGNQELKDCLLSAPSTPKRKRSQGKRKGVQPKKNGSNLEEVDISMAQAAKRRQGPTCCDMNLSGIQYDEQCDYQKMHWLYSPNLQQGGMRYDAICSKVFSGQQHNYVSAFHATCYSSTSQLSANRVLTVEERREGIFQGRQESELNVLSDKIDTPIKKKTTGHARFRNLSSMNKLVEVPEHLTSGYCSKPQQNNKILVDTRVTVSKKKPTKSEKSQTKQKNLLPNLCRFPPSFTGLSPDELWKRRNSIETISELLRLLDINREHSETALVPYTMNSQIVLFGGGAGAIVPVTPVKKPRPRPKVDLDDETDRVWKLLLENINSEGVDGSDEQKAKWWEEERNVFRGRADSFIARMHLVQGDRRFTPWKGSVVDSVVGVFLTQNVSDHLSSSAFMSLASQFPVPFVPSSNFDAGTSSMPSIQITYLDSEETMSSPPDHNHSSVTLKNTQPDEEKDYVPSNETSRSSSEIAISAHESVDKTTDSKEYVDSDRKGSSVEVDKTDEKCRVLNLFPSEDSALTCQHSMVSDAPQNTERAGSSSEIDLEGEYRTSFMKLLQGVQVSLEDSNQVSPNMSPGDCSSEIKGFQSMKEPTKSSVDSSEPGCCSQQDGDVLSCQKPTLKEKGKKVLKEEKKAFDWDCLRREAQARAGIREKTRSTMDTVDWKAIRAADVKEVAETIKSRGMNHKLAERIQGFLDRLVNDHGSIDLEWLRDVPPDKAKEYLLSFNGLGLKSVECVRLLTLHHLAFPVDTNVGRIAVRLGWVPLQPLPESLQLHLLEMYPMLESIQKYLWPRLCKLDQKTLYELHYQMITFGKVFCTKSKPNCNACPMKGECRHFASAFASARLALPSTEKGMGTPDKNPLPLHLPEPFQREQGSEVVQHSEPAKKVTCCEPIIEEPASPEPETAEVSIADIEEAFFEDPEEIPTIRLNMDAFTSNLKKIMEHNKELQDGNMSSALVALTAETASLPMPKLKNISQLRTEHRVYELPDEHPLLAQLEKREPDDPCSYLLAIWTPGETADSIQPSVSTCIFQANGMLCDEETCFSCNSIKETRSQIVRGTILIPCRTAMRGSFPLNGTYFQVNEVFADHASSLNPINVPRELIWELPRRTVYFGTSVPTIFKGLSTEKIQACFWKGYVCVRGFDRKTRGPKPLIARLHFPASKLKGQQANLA

NΔ294-ROS1 [2] = molecular target: T2, NΔ294-ROS1 (Arabidopsis, UniProt Q9SJQ6 295-1393, del1-294); test: EMSA; dissociates when chased with unlabelled S; needs higher protein than SL1-2; EMSA: 10 nM (so in the source) Tris-HCl pH 8.0, 1 mM DTT, 10 ug/ml BSA, 1 mM EDTA, 25 C, 60 min; 100 nM probe; 0.2% agarose, 1x TAE; settings: protein: recombinant; tags: N-terminal His; label: 5'-fluorescein upper strand
T2 sequence: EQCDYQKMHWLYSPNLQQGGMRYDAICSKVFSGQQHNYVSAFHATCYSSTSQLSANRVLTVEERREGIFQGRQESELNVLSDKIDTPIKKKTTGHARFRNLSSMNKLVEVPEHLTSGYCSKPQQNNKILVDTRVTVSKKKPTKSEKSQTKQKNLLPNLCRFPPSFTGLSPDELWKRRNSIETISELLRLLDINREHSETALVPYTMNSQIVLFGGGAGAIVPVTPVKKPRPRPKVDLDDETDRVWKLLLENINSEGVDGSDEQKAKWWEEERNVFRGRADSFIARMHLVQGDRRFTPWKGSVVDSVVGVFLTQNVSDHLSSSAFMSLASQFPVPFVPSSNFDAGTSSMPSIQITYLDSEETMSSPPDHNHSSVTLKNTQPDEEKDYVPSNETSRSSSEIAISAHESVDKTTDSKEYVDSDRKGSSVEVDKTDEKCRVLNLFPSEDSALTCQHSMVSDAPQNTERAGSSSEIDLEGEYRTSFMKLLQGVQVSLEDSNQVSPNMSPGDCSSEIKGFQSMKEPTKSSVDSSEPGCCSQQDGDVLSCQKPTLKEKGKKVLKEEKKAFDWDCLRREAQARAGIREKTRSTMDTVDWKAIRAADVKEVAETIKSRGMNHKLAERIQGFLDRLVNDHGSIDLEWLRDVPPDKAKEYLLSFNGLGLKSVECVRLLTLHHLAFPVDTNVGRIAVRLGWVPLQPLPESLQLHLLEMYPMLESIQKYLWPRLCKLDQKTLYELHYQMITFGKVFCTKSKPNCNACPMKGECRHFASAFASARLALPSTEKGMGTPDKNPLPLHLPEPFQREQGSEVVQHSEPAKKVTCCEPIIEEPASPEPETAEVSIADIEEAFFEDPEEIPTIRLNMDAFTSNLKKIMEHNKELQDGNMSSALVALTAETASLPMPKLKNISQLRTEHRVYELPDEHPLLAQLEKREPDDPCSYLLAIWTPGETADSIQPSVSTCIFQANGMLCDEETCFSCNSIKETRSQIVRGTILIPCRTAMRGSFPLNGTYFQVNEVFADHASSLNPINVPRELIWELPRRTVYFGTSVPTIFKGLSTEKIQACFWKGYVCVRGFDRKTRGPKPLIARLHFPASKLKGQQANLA

FL-ROS1 [3] = molecular target: T1, FL-ROS1; test: EMSA; dissociates when chased with mismatched S; EMSA: 10 nM (so in the source) Tris-HCl pH 8.0, 1 mM DTT, 10 ug/ml BSA, 1 mM EDTA, 25 C, 60 min; 100 nM probe; 0.2% agarose, 1x TAE; settings: protein: recombinant; tags: N-terminal His; label: 5'-fluorescein upper strand; central T:G mispair
FL-ROS1 [4] = molecular target: T1, FL-ROS1; test: EMSA; remains bound when chased with unlabelled S; affinity not higher than for S; EMSA: 10 nM (so in the source) Tris-HCl pH 8.0, 1 mM DTT, 10 ug/ml BSA, 1 mM EDTA, 25 C, 60 min; 100 nM probe; 0.2% agarose, 1x TAE; settings: protein: recombinant; tags: N-terminal His; label: 5'-fluorescein upper strand; four-way junction obstacles on both sides
NΔ294-ROS1 [5] = molecular target: T2, NΔ294-ROS1; test: EMSA; binds at lower concentration than to S; displaced at high competitor S; EMSA: 10 nM (so in the source) Tris-HCl pH 8.0, 1 mM DTT, 10 ug/ml BSA, 1 mM EDTA, 25 C, 60 min; 100 nM probe; 0.2% agarose, 1x TAE; settings: protein: recombinant; tags: N-terminal His; label: 5'-fluorescein upper strand; four-way junction obstacles on both sides
FL-ROS1 [6] = molecular target: T1, FL-ROS1; test: EMSA; low dissociation with competitor S, slightly higher than SL1-2; EMSA: 10 nM (so in the source) Tris-HCl pH 8.0, 1 mM DTT, 10 ug/ml BSA, 1 mM EDTA, 25 C, 60 min; 100 nM probe; 0.2% agarose, 1x TAE; settings: protein: recombinant, tags: N-terminal His, label: 5'-fluorescein upper strand, four-way junction obstacle
NΔ294-ROS1 [7] = molecular target: T2, NΔ294-ROS1; test: EMSA; easier to dissociate by competitor S than FL-ROS1; EMSA: 10 nM (so in the source) Tris-HCl pH 8.0, 1 mM DTT, 10 ug/ml BSA, 1 mM EDTA, 25 C, 60 min; 100 nM probe; 0.2% agarose, 1x TAE; settings: protein: recombinant, tags: N-terminal His, label: 5'-fluorescein upper strand, four-way junction obstacle
FL-ROS1 [8] = molecular target: T1, FL-ROS1; test: EMSA; chase with competitor; similar to methylated S; EMSA: 10 nM (so in the source) Tris-HCl pH 8.0, 1 mM DTT, 10 ug/ml BSA, 1 mM EDTA, 25 C, 60 min; 100 nM probe; 0.2% agarose, 1x TAE; settings: protein: recombinant; tags: N-terminal His; label: 5'-fluorescein upper strand
FL-ROS1 [9] = molecular target: T1, FL-ROS1; test: EMSA; remains bound when chased with mismatched S; affinity not higher than for S; EMSA: 10 nM (so in the source) Tris-HCl pH 8.0, 1 mM DTT, 10 ug/ml BSA, 1 mM EDTA, 25 C, 60 min; 100 nM probe; 0.2% agarose, 1x TAE; settings: protein: recombinant; tags: N-terminal His; label: 5'-fluorescein upper strand; four-way junction obstacles on both sides; central T:G mispair
FL-ROS1 [10] = molecular target: T1, FL-ROS1; test: EMSA; chase with competitor; similar to methylated SL1-2; EMSA: 10 nM (so in the source) Tris-HCl pH 8.0, 1 mM DTT, 10 ug/ml BSA, 1 mM EDTA, 25 C, 60 min; 100 nM probe; 0.2% agarose, 1x TAE; settings: protein: recombinant; tags: N-terminal His; label: 5'-fluorescein upper strand; four-way junction obstacles on both sides

B1: S (5-meC:G) (dsDNA)
DNA 1: TCACGCGGGATCAATGTGTTCTTTCAGCTCCGGTCACGCTGACCAGGAATACCTCACTACC
DNA 2: GGTAGTGAGGTATTCCTGGTCAGCGTGACCGGAGCTGAAAGAACACATTGATCCCGCGTGA
modifications: one central 5-meC in CG context
binding result (FL-ROS1 [1]): binds | binding result (NΔ294-ROS1 [2]): binds

B2: S (T:G) (dsDNA)
DNA 1: B1 DNA 1 with C31T
DNA 2: B1 DNA 2
binding result (FL-ROS1 [3]): binds

B3: SL1-2 (5-meC:G) (dsDNA)
DNA 1: B1 DNA 1
DNA 2: GGTAGTGAGGTATTCCCCCGTAAGGGTCCGTAAGGATGGTCAGCGTGACCGGAGCTGAAAGAACACCCGTAAGGGTCCGTAAGGACATTGATCCCGCGTGA
modifications: one central 5-meC in CG context
binding result (FL-ROS1 [4]): binds | binding result (NΔ294-ROS1 [5]): binds

B4: SL2 (5-meC:G) (dsDNA)
DNA 1: B1 DNA 1
DNA 2: GGTAGTGAGGTATTCCTGGTCAGCGTGACCGGAGCTGAAAGAACACCCGTAAGGGTCCGTAAGGACATTGATCCCGCGTGA
modifications: one central 5-meC in CG context
binding result (FL-ROS1 [6]; right): binds | binding result (NΔ294-ROS1 [7]; right): binds

B5: SL1 (5-meC:G) (dsDNA)
DNA 1: B1 DNA 1
DNA 2: GGTAGTGAGGTATTCCCCCGTAAGGGTCCGTAAGGATGGTCAGCGTGACCGGAGCTGAAAGAACACATTGATCCCGCGTGA
modifications: one central 5-meC in CG context
binding result (FL-ROS1 [6]; left): binds | binding result (NΔ294-ROS1 [7]; left): binds

B6: S (homoduplex, no target) (dsDNA)
DNA 1: B1 DNA 1
DNA 2: B1 DNA 2
binding result (FL-ROS1 [8]): binds

B7: SL1-2 (T:G) (dsDNA)
DNA 1: B1 DNA 1 with C31T
DNA 2: B3 DNA 2
binding result (FL-ROS1 [9]): binds

B8: SL1-2 (homoduplex, no target) (dsDNA)
DNA 1: B1 DNA 1
DNA 2: B3 DNA 2
binding result (FL-ROS1 [10]): binds
